The target of assay [1] is anti-FcRL5/CD3 bispecific antibody generated using the ET200-104 scFv. The experiment in a line: ELISA, ET200-104 coated at 1 µg/ml on a Nunc Maxisorp plate; for some dilutions of the secondary Ab. A general note: In an ELISA, binding on a coated surface is turned into a signal by an enzyme label.
Assay [2] addresses anti-FcRL5/CD3 bispecific antibody generated using the ET200-117 scFv. The experiment in a line: ELISA, ET200-117 coated at 1 µg/ml on a Nunc Maxisorp plate; for some dilutions of the secondary Ab.
In a further assay the target is SLAMF9 protein (UniProt Q96A28 19-236, limits assumed). The experiment in a line: phage clone on SLAMF9 protein.
The target in assay [3] is T1, FcRL1, overexpressed on 3T3 cells (UniProt Q96LA6 17-429, limits assumed).
T1 construct: whole, on cells
T1 sequence (looked up): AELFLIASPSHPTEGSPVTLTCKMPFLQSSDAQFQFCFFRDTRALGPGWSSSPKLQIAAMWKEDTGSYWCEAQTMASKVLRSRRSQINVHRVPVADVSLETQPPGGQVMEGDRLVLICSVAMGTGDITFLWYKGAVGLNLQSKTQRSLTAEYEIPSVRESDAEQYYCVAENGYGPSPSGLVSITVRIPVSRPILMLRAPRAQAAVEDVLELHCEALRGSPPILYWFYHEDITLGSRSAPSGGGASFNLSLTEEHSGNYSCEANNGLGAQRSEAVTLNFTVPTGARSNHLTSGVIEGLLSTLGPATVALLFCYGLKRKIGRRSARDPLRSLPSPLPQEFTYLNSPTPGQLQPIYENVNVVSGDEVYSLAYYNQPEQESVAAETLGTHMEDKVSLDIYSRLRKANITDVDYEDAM
The experiment in a line: phage clone on 3T3-FcRL1 cells.

Assay [4] has as its target T2, FcRL2, overexpressed on 3T3 cells (UniProt Q96LA5 20-508, limits assumed).
T2 construct: whole, on cells
T2 sequence (looked up): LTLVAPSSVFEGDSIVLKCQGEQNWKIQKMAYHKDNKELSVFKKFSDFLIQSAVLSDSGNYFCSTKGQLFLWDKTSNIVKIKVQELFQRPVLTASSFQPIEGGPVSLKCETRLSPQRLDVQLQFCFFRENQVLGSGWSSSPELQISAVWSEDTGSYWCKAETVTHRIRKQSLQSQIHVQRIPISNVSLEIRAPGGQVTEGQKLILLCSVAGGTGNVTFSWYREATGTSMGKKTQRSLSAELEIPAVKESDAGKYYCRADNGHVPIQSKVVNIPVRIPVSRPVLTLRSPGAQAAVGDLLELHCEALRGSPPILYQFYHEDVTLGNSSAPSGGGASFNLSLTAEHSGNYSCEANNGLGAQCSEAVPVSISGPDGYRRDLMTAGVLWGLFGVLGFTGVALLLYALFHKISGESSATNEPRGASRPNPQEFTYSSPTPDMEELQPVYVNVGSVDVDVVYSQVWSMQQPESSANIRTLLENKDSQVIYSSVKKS
The experiment in a line: phage clone on 3T3-FcRL2 cells.

Assay [5] concerns the target T3, FcRL3, overexpressed on 3T3 cells (UniProt Q96P31 18-734, limits assumed).
T3 construct: whole, on cells
T3 sequence (looked up): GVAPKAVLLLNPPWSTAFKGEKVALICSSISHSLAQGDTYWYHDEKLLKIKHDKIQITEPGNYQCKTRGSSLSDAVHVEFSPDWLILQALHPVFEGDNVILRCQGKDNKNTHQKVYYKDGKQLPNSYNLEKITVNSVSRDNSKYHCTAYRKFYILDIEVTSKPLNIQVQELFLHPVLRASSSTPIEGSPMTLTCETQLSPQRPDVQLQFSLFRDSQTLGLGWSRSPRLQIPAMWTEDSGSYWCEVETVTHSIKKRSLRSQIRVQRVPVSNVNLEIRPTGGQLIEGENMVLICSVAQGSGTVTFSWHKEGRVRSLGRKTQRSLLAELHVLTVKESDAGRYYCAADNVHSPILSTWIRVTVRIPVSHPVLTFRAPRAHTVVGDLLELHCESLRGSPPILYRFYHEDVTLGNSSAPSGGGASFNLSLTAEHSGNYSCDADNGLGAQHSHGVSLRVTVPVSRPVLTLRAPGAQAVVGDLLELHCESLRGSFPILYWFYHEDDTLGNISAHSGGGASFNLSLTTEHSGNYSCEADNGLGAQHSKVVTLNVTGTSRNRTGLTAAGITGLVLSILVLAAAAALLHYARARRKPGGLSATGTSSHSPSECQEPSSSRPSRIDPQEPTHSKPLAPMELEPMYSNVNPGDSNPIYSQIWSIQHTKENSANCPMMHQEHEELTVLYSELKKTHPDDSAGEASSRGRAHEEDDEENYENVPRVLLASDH
The experiment in a line: phage clone on 3T3-FcRL3 cells.

Assay [6] addresses T4, FcRL4, overexpressed on 3T3 cells (UniProt Q96PJ5 20-515, limits assumed).
T4 construct: whole, on cells
T4 sequence (looked up): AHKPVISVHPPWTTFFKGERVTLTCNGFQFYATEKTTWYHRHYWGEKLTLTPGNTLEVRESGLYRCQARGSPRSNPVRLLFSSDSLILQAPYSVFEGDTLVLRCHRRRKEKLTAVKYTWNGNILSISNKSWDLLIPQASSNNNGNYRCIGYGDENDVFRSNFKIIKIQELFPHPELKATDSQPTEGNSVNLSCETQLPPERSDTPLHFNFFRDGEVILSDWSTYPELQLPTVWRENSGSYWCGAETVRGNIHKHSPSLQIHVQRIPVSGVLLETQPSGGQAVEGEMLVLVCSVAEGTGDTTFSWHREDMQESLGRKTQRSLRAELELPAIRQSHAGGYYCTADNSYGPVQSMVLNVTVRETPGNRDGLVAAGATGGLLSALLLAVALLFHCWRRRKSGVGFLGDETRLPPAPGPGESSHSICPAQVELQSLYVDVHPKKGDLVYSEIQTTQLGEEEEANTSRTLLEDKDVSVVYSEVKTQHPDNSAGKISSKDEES
The experiment in a line: phage clone on 3T3-FcRL4 cells.

Assay [7] addresses T5, FcRL6, overexpressed on 3T3 cells (UniProt Q6DN72 20-434, limits assumed).
T5 construct: whole, on cells
T5 sequence (looked up): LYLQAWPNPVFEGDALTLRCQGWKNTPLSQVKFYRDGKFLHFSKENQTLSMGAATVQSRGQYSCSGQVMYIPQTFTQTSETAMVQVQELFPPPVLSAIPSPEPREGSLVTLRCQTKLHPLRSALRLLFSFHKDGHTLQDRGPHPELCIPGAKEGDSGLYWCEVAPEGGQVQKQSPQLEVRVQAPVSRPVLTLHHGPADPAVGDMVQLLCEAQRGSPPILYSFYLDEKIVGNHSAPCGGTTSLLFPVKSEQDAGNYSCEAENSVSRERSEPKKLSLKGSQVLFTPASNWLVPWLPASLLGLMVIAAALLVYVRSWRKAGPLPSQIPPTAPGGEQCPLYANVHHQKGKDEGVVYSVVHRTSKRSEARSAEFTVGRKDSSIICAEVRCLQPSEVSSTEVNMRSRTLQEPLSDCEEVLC
The experiment in a line: phage clone on 3T3-FcRL6 cells.

Experimental findings from patent publication US20210388081A1 (Memorial Sloan Kettering, published 2021) are described below.

Sequence of SLAMF9 protein (Q96A28 19-236 limits assumed): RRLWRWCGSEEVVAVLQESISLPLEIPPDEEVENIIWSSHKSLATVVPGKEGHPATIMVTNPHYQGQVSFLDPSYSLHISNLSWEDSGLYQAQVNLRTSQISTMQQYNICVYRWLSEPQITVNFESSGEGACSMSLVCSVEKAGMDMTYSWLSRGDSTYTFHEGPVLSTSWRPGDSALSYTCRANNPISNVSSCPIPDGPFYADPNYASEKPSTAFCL
Sequence of anti-FcRL5/CD3 bispecific antibody generated using the ET200-117 scFv (scFv, as listed by the source limits assumed, form in doubt): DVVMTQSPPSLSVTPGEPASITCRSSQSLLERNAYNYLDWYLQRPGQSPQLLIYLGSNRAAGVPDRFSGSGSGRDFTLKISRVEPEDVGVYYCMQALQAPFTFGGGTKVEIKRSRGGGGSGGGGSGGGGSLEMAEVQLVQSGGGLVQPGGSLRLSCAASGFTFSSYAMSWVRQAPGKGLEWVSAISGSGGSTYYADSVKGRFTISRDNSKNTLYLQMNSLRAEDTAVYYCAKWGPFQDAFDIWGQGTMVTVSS

Take “Goat Anti-Human Ig-HRP (Southern Biotech; #2010/05) (antibody)”: the OD in assay [1] and in assay [2] was more than 1 OD throughout.

B1: ET200-037 (scFv)
scFv: SYVLTQPPSVSVAPGKTARITCGGNNIGSKSVHWYQQKPGQAPVLVIYYDSDRPSGIPERFSGSNSGNTATLTISRVEAGDEADYYCQVWDSSSDHPYVFGTGTKVTVLGSRGGGGSGGGGSGGGGSLEMAQMQLVQSGAEVKKPGASVKVSCKASGYTFTSYGISWVRQAPGQGLEWMGWISAYNGNTNYAQKLQGRVTMTTDTSTSTAYMELRSLRSDDTAVYYCARSMFGAHDSWGQGTLVTVSSTSGQAGQHHHHHHGAYPYDVPDYAS
notes: screened as phage clone; entry is VL-linker-VH-His tag-HA tag
B1: the binding result (in the assay with SLAMF9 protein; in assay [3]; in assay [4]; in assay [5]; in assay [6]; in assay [7]) was “no binding” each time.

B2: ET200-024 (scFv)
scFv: NFMLTQPHSVSESPGKTVTISCTGSSGSIASNYVQWYQQRPGSAPTTVIYEDNQRPSGVPDRFSGSIDSSSNSASLTISGLKTEDEADYYCQSYDSSNLWVFGGGTKLTVLGSRGGGGSGGGGSGGGGSLEMAQMQLVQSGAEVKKPGSSVKVSCKASGGTFSSYAISWVRQAPGQGLEWMGGIIPIFGTANYAQKFQGRVTITADESTSTAYMELSSLRSEDTAVYYCARYNYYYYDSWGQGTLVTVSSTSGQAGQHHHHHHGAYPYDVPDYAS
notes: as for B1
B2: the binding result (with SLAMF9 protein; in assay [3]; in assay [4]; in assay [5]; in assay [6]; in assay [7]) was “no binding” each time.
